Results taken from patent publication US20230256076A1 (SICHUAN CLOVER BIOPHARMACEUTICALS, published 2023).

Target: T1, exemplary recombinant polypeptide trimer: RSV F protein peptide (residues 1 to 520, RSV A2 strain) fused to … (respiratory syncytial virus A2 strain; …, UniProt P02452 1156-1464)
T1 construct: range 1-520;domain: C-propeptide of α1 collagen; Furin processing (F2/F1, loss of pep27) is not described for the tested protein; also called RSV F-Trimer; exemplary fusion peptide comprising an RSV F protein peptide
Assay: BLI (ForteBio Octet QKe); palivizumab 5 µg/mL on Protein A sensors, 2-fold dilutions of fusion peptide from 20 µg/mL, 1:1 model

T1 sequence (P02452 1156-1464): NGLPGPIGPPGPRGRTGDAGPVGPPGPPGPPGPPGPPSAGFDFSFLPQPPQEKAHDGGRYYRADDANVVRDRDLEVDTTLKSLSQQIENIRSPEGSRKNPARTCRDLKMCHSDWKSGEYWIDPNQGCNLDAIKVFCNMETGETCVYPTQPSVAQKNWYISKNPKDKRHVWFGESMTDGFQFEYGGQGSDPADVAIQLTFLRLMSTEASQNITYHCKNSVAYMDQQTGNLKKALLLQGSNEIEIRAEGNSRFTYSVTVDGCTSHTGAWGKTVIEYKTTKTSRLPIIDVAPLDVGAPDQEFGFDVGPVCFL

B1: palivizumab (antibody, V domains shown)
VH: QVTLRESGPALVKPTQTLTLTCTFSGFSLSTSGMSVGWIRQPPGKALEWLADIWWDDKKDYNPSLKSRLTISKDTSKNQVVLKVTNMDPADTATYYCARSMITNWYFDVWGAGTTVTVSS
VL: DIQMTQSPSTLSASVGDRVTITCKCQLSVGYMHWYQQKPGKAPKLLIYDTSKLASGVPSRFSGSGSGTEFTLTISSLQPDDFATYYCFQGSGYPFTFGGGTKLEIK
- Kd: < 1 pM
